This series deals with the molecule itself. Nature of the series: SEC + other: mass spectrometry; HiLoad 16/60 Superdex 75, 20 mM sodium phosphate pH 6.5, 150 mM NaCl, with or without 2 mM DTT; dimer fraction decreased with DTT; fractions identified by mass spectrometry; monomer to covalent dimer.

As a reminder, the stoichiometry N is a count of units in the complex or per binding partner.

B1: His-SUMO-peptide fusion protein (SUMO_SAPKELCKAVSVSM) (domain or fragment, human)
chain: SAPKELCKAVSVSM
notes: three amino acids Ser-Ala-Pro linker inserted between the SUMO tag and the peptide; The peptide is the C-terminus of the chain (stop codon after it); The dimer is covalent; Printed mass 15,819 (printed as kDa); source: E. coli Rosetta (DE3), purified (Ni-NTA agarose, SEC); not shown: His, N-terminal, kept; SUMO, N-terminal, kept
As for B1, the “stoichiometry N” value turned out to be 2.

The record behind these values is publication PMC5485733, “An Amyloidogenic Sequence at the N-Terminus of the Androgen Receptor Impacts Polyglutamine Aggregation” (Biomolecules, 2017).
